The values below come from the supplement of paper PMC12042874.

± gives the uncertainty stated by the source.

The data set in a line: amyloid nucleation score (Sup35N fusion, yeast selection) (log enrichment); library NNK1; higher = more nucleation; inactive = no reads after selection. In a few lines: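 Nucleation score is defined as the DiMSum log enrichment of output over input reads, with centring on the mode score of non-aggregating sequences. A minimum of 100 input reads was required for each sequence. Reads came from Illumina sequencing of plasmid inserts from psi-negative yeast expressing Sup35N fused to peptides of 20 random codons, induced with 100 μM copper sulfate for 24 hours and grown 7 days at 30°C on medium lacking adenine and uracil.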
SICFYSLNSTPSLVGSWWGG: the amyloid nucleation score was 1.3 ± 0.85. As for SICSFLFR, the amyloid nucleation score was 3.69 ± 0.093.

The substance SIDCLCYYAPRLFRMHVELT had an amyloid nucleation score of -0.656 ± 0.89. SIFVFRLYFLYGLV had an amyloid nucleation score of 0.606 ± 0.44. Substance SIGRLIPYFNQTPFCIS displayed an amyloid nucleation score of -0.338 ± 0.23. Next, SILMIMMTLSSVQRLMLTGS: -0.161 ± 0.71. Next, SIMPWNLSVRSMWRFWMNLR: “inactive”; SIPRGFLLVLLVDNPTIRLQ: -0.358 ± 0.32. Substance SIQNPLNLVDNLPTT yielded an amyloid nucleation score of -0.114 ± 0.21. Take SIRLYETHSLT: the amyloid nucleation score was determined as 0.885 ± 0.14. In turn, SISVNTFLRPQLRWM had an amyloid nucleation score of 6.509 ± 0.061. For SITADLGHNSVALGVALLVI, the amyloid nucleation score is -0.057 ± 1.7. The substance SIYDARRMVRVHTFHEGLL showed an amyloid nucleation score of -0.577 ± 1.4. SIYHYCRDIRDCRMSRLELG gave an amyloid nucleation score of 0.572 ± 0.33. Consider SIYIVNSLALVGMGLMSNYG, for which the amyloid nucleation score was 2.81 ± 0.23. The value for SKAKYGESSVWRVGLMGCF was -1.06 ± 0.83. SKCLMNS yielded an amyloid nucleation score of -1.26 ± 1.7. The substance SKFSISRTHNSHLSYSGLGG showed an amyloid nucleation score of 0.056 ± 0.5. In turn, SKGFDDESTAGSFFKLMLLY gave an amyloid nucleation score of -1.9 ± 2.4.

SKRLLQL: the amyloid nucleation score was -0.665 ± 0.87.

Substance SKSSRTFLVFSLVWVYNLLM gave an amyloid nucleation score of 1.73 ± 0.19. Consider SKSYLVFDNISRRH, for which the amyloid nucleation score was -1.11 ± 0.7. The value for SKTGRGTLVMEVSRCEVYDF was 0.027 ± 1.7; that for SKVNISSYNSCFVRKGCQCR was 6.328 ± 0.046. For SLCTFLGFWGHVFSLRVNRL, the amyloid nucleation score was -0.156 ± 1.1.

Regarding SLDRYIREHK, the amyloid nucleation score turned out to be 0.635 ± 0.84.

As to SLDYLIFPVLDDGKKYMFVM, the amyloid nucleation score is 1.33 ± 0.46. Next, SLESS: 0.642 ± 0.62.

In turn, SLFHLNFTIRWVDHAADSLV registered an amyloid nucleation score of 1.98 ± 0.56. Next, SLGVYGQGSGWMLVVNVWEV: 1.97 ± 0.24. In turn, SLIRIVSS returned an amyloid nucleation score of 0.372 ± 0.52. Next, SLKVTAPTQMGQCVVGGVYH: -0.279 ± 0.88; SLNFPLLSQPAPIFVLSDKG: 0.974 ± 0.76.

SLPFVTS gave an amyloid nucleation score of -0.319 ± 0.71. For the substance SLQHGYVVYVIVFLDATSNT, the amyloid nucleation score was -0.186 ± 0.86. Consider SLRCQFTSLLSMVCGCSLYG, for which the amyloid nucleation score stood at 0.807 ± 0.93. The substance SLRFQSYRAWSMGWKLDDSC registered an amyloid nucleation score of 0.821 ± 1.1.

As for SLRITLVWGRMQCGPESVCR, the amyloid nucleation score was 0.745 ± 0.24.

Take SLRMLCRLPSRKDRSWTDML: the amyloid nucleation score was 0.6 ± 0.32. SLSAPLNTLVFVVYIQWWEM: the amyloid nucleation score is 0.321 ± 0.71. For SLSWEAYRSLLS, the amyloid nucleation score was 1.1 ± 0.23. SLSYFSSFI: the amyloid nucleation score entry is “inactive”. Regarding SLVMKVPLFECVCIGMCGRA, the amyloid nucleation score was determined as 0.448 ± 0.52.

Substance SLVSGSVGCLGRYQFRESKP gave an amyloid nucleation score of 0.422 ± 0.45. SLWIKQLRERVANFLAGFEG: the amyloid nucleation score result is “inactive”. As to SLWITFLPLIGLSAVRRRVR, the amyloid nucleation score is -1.24 ± 1.4. Next, SLWVWRNAWLVHLYRL: -0.206 ± 0.54; SLYKMVMCNGYSCLLLYLVC: 0.353 ± 0.97. Regarding SLYYEG, the amyloid nucleation score is 0.867 ± 0.45. For SLYYGGLQER, the amyloid nucleation score was -0.02 ± 0.29.

SMAGEFWSVLFFCESIWGGD gave an amyloid nucleation score of 4.83 ± 0.12.

In turn, SMCTCLRMGRLPIQVFSWSG yielded an amyloid nucleation score of -1.52 ± 2.7.

SMGRLP came in with an amyloid nucleation score of -1.05 ± 1.5.

Consider SMGVMSCNMSWSSAWCVMCV, for which the amyloid nucleation score is 0.289 ± 0.42.

On to SMGWYGYFLYLNCDDSFPYW, for which the amyloid nucleation score is 3.79 ± 0.069. With SMLDNDTSNMLEMPIGMYVA, the amyloid nucleation score entry was “inactive”. SMRIFMMLQWYRGSNLCFFH had an amyloid nucleation score of 0.537 ± 1.1. In turn, SMRRAI showed an amyloid nucleation score of -0.263 ± 1.4. SMSCVVHRGSSASCWMFYRN yielded an amyloid nucleation score of 0.784 ± 0.37. SMSHVWL displayed an amyloid nucleation score of -1.25 ± 1.5.

Substance SMVLFGRISWIGEVLLL displayed an amyloid nucleation score of 4.99 ± 0.089. SMVLKTTDAGDNLHSKCNML gave an amyloid nucleation score of -1.09 ± 0.68. Turning to SMYFQRP, the amyloid nucleation score came out at 0.53 ± 0.26.

Take SMYVYDRGTGILLSCGVYFF: the amyloid nucleation score came to 1.82 ± 0.11. In turn, SNALVFNFSRHAFVNIVFVY yielded an amyloid nucleation score of 4.04 ± 0.13. Next, SNATVGQPRYNVRTGKAGCE: 0.351 ± 0.48; SNEVSGLVCQLTNVVYLLGL: 4.89 ± 0.052; SNFGCFYCLLIPRNKKLGLG: 1.67 ± 0.47.

Consider SNFGIIYM, for which the amyloid nucleation score result was “inactive”. With SNLLTCPKYFVVTFFCL, the amyloid nucleation score was 0.211 ± 0.26. The substance SNMSHLNRG displayed an amyloid nucleation score of 0.649 ± 0.75. Take SNNDFLTSPAFGLLTG: the amyloid nucleation score is 0.066 ± 0.45.

SNSFALALLPGGT returned an amyloid nucleation score of 0.275 ± 0.75.

SNSGIKGFGGMIPRV showed an amyloid nucleation score of 3.92 ± 0.1.

In turn, SNSNTIP had an amyloid nucleation score of -0.676 ± 0.98.

On to SNVVNFDNNEDYLDTCRYLI, for which the amyloid nucleation score worked out at 0.734 ± 0.97.

Take SNYFVSVDRGIWSCCYMCSF: the amyloid nucleation score amounted to 7.474 ± 0.063. In turn, SNYYWVAWGDSPLQVHP registered an amyloid nucleation score of 0.626 ± 0.81.

As to SPFASVEEFELL, the amyloid nucleation score was determined as 0.124 ± 0.33. Turning to SPIVGTLFYFMLWNMSAHTR, the amyloid nucleation score turned out to be 1.96 ± 0.26.

SPLMRFFSTDSGARIFLNMS gave an amyloid nucleation score of -0.388 ± 0.52. SPLSYAI came in with an amyloid nucleation score of 1.36 ± 0.58.

Take SPPSSNIFPCI: the amyloid nucleation score was determined as 0.052 ± 0.69. In the case of SQFLLYSPINFLCFAENHNG, the amyloid nucleation score was 6.36 ± 0.078. The value for SQLNCIDRTMGYDDRMEIRS was 0.014 ± 0.42; that for SQQVHISNVHVLYLRWWTGC was 0.696 ± 0.74. SRATVSFVSLGNLTFGTILC displayed an amyloid nucleation score of 1.72 ± 0.36.

In turn, SRFNSWLCCEND came in with an amyloid nucleation score of 1.76 ± 0.35. For the substance SRGFDHITFF, the amyloid nucleation score is -0.677 ± 1.2. For the substance SRGITRQFESHTCAEHRCGS, the amyloid nucleation score is -0.252 ± 0.97.

With SRHFFTAKCQRPRFLWKSDR, the amyloid nucleation score is -0.172 ± 1.2. Next, SRIFRKLHYSTWIQMRGLCP: -0.431 ± 0.28; SRKVLTPVSPVSVRAARVGH: -0.979 ± 1.9; SRLEKKGNWPVYSTQAVWMT: -0.421 ± 0.42. In the case of SRLIY, the amyloid nucleation score was -0.894 ± 0.4. The value for SRLMV was 0.547 ± 0.71; that for SRMLAVKFKLVVTNCCVKLI was -0.598 ± 1.4.

As for SRPHTVWDMC, the amyloid nucleation score was 0.245 ± 0.32. Substance SRPYLLRLR displayed an amyloid nucleation score of 0.455 ± 0.57. Next, SRRCLLKNISSPCF: -1.82 ± 0.87.

Take SRVCYNRWLKLWDSDRPVIG: the amyloid nucleation score is -0.001 ± 0.36. SRVRHFVSFFTV came in with an amyloid nucleation score of -0.333 ± 0.58. Regarding SRVSFLNFWN, the amyloid nucleation score worked out at 4.27 ± 0.15. The substance SSAVD came in with an amyloid nucleation score of 0.329 ± 1.1. The substance SSCKWSSKPAHEFQVMTAPT gave an amyloid nucleation score of -0.007 ± 0.65.
